Data: the supplement of paper PMC10567573
± gives the standard deviation.

Assay: protein stability index of a GFP-peptide fusion (GPS, HEK-293T) (PSI 1-6); higher = more stable
[1] = treatment: DMSO, c terminus: a fixed tail appended
[2] = treatment: MLN4924 1 uM, 8 h, c terminus: a fixed tail appended
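Also: 24-mer peptide tiles fused after GFP, lentivirally expressed, FACS-sorted into six equal bins by GFP/DsRed ratio, decoded by Illumina sequencing, PSI is the read-weighted mean bin number.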

| Sequence | protein stability index [1] | protein stability index [2] | protein stability index (treatment: DMSO, c terminus: native) | protein stability index (treatment: MLN4924 1 uM, 8 h, c terminus: native) |
| --- | --- | --- | --- | --- |
| SLYRDIRDIQDENQLLVADVKRLG [STX11] | 3.67 ± 0.33 | 3.58 ± 0.22 | – | – |
| SMEGVRWAFSCGTWLPSRAEWLLA [AASDHPPT] | 2.65 ± 0.57 | 2.79 ± 0.52 | – | – |
| SMEIYGSAVADKLDNSRSILKRRY [CTDNEP1] | 3.28 ± 0.22 | 3.71 ± 0.41 | – | – |
| SNANYSVKKCIFLLFINHRLVEST [MLH1] | 3.35 ± 0.46 | 3.25 ± 1.2 | – | – |
| SNVRGSLNVNLNSVVLRRARGGAV [DUSP5] | 3.74 ± 0.24 | 4.1 ± 0.29 | – | – |
| SPFAQELLDDGQQASPYHPGSCGA [ELF3] | 4.83 ± 0.31 | 5.04 ± 0.16 | – | – |
| SPGELEEDLLLPGACPGADEAGGG [WEE1] | 5.42 ± 0.24 | 5.5 ± 0.12 | – | – |
| SPLHLVQMPPVIVETARSHQRSSS [PI4K2A] | 4.22 ± 0.18 | 4.24 ± 0.2 | – | – |
| SPPVMVAGGRVFVLPCIQQIQRIS [FLOT1] | 2.15 ± 0.5 | 1.96 ± 0.27 | – | – |
| SPVNMVTVAMVAGQCEFAHILHS [ZNF649] | – | – | 2.08 ± 0.19 | 1.87 ± 0.25 |
| SQILQNKKHKNSQLDKNSEVYQEV [FAM98B] | 4.46 ± 0.42 | 4.81 ± 0.067 | – | – |
| SQLSMKAGLENTVAETECRYALQL [KRT13] | 3.37 ± 0.2 | 3.35 ± 0.25 | – | – |
| SQPGNAVIDKETIDLLAFTSVAEL [SDE2] | 3.43 ± 0.3 | 3.46 ± 0.32 | – | – |
| SQSETSSAVSTPSPVTRTRSLSAC [DLC1] | 4.89 ± 0.23 | 4.87 ± 0.14 | – | – |
| SQYQCENGVSGPSQDLLPPPNPYP [TBX5] | 4.75 ± 0.16 | 4.64 ± 0.14 | – | – |
| SRAANQEQRANDLEQIMESVKSKI [CEP70] | 4.44 ± 0.22 | 4.49 ± 0.14 | – | – |
| SRAILQRVQAAAFGPGQTLLSSVH [ALKBH7] | 2.72 ± 0.14 | 2.65 ± 0.35 | – | – |
| SRLLGAAAGQRSRPSTYYELLGVH [DNAJC4] | 2.54 ± 0.57 | 2.52 ± 0.42 | – | – |
| SRMKFRGNGALSNISDLPFLAENS [LCOR] | 3.32 ± 0.31 | 3.47 ± 0.27 | – | – |
| SRSENVLSRLSLMAMPNGFHEDGP [PSD2] | 3.73 ± 0.17 | 3.87 ± 0.27 | – | – |
| SRSNSRSRSYSPRRSRGSPRYSPR [SRSF1] | 5.28 ± 0.26 | 5.56 ± 0.065 | – | – |
| SRSPSVEGSLWAVGTESQGRDWRH [PXN] | 4.04 ± 0.11 | 4.05 ± 0.23 | – | – |
| SRSTLECAYRTHLVAGIGFYQHLL [SMG5] | 2.9 ± 0.35 | 2.83 ± 0.57 | – | – |

| Sequence | protein stability index [1] | protein stability index [2] | protein stability index (treatment: DMSO, c terminus: native) | protein stability index (treatment: MLN4924 1 uM, 8 h, c terminus: native) |
| --- | --- | --- | --- | --- |
| SRSYSPRRSRGSPRYSPRHSRSRS [SRSF1] | 5.39 ± 0.24 | 5.5 ± 0.25 | – | – |
| SRVLLSAIEGIPGSDYVNANYIDG [PTPRD] | 3.28 ± 0.26 | 3.73 ± 0.24 | – | – |
| SSCHFARDSSFLISGGFDRTVAIW [WDR88] | 2.42 ± 0.45 | 2.51 ± 0.55 | – | – |
| SSCIPKAFGNPKFALQGLPLNCAP [IRX6] | 2.46 ± 0.25 | 2.75 ± 0.18 | – | – |
| SSGSFCYCHPDSETDEDEEEGDEQ [GMCL1] | 5.52 ± 0.17 | 5.39 ± 0.14 | – | – |
| SSIVWRFVEDSFDPNINPTIGASF [RAB22A] | 2.31 ± 0.57 | 1.71 ± 0.47 | – | – |
| SSQGVATPAITVSNSCPAELPNIK [TFE3] | 5 ± 0.11 | 4.96 ± 0.24 | – | – |
| SSSVETGPSVSEPPGLPRVSAYVD [SPATS1] | 4.77 ± 0.35 | 4.72 ± 0.21 | – | – |
| SSTQLCVLNDRFQRQKYLSLQQMQ [NANOGP8] | 2.65 ± 0.14 | 2.83 ± 0.1 | – | – |
| SSVECYNLETNEWRYVSSLPQPLA [KLHL14] | 2.6 ± 0.19 | 2.92 ± 0.24 | – | – |
| STHELEKKELEENFEKLRLSLQDQ [MTUS2] | 5.43 ± 0.14 | 5.33 ± 0.12 | – | – |
| STIGFKLPNHRAAKRLWKVCVEHH [EPB41L3] | 2.26 ± 0.27 | 2.58 ± 0.45 | – | – |
| STNGEKTKSPCESNNKKNDEMQEV [SPANXN3] | 5.53 ± 0.16 | 5.41 ± 0.19 | – | – |
| STVKTETISFGSVSPGGVKLEIST [EPB41L3] | 3.19 ± 0.58 | 3.06 ± 0.42 | – | – |
| STWSDPSVNISLDNLLPGMQPSKP [CLINT1] | 4.3 ± 0.12 | 4.25 ± 0.099 | – | – |
| STYRKRTPVMEGYVEVKEGKTWKQ [LOXL2] | – | 3.92 ± 0.2 | – | – |
| STYRPLPDPSVWSRRYTEMALPFF [MYORG] | 2.36 ± 0.4 | 2.22 ± 0.13 | – | – |
| SVEYGYRPGATAVPTPLTNVQILL [FCHO1] | 2.06 ± 0.62 | 2.03 ± 0.48 | – | – |
| SVKSKIGELEDESLNRACHQQNKI [CEP70] | 4.63 ± 0.41 | 4.7 ± 0.25 | – | – |
| SVPIDLQKVDQFDPFTVPTISFIC [PRIM1] | 2.55 ± 0.44 | 2.48 ± 0.74 | – | – |
| SVVNVGCGPAEERVLLTGLHAVAD [YPEL3] | 3 ± 0.78 | 3.29 ± 0.7 | – | – |
| SVWQHIDCMGIDRQHIPDTYLCER [KMT2E] | 2.83 ± 0.2 | 2.81 ± 0.4 | – | – |
| SWPRASPASGASSIKPEASQMPPP [SCNN1D] | 4.62 ± 0.27 | 4.63 ± 0.38 | – | – |

| Sequence | protein stability index [1] | protein stability index [2] | protein stability index (treatment: DMSO, c terminus: native) | protein stability index (treatment: MLN4924 1 uM, 8 h, c terminus: native) |
| --- | --- | --- | --- | --- |
| SWRWIMLILFAWGTLLFYIGGHLV [FUT8] | 2.42 ± 0.14 | 2.27 ± 0.47 | – | – |
| SYVRSRKRLREEEAARLFKQIVSA [TRIB1] | 2.53 ± 0.38 | 3.09 ± 0.27 | – | – |
| TAENERLQKKVEQLSRELSTLRNL [CEBPB] | 3.69 ± 0.2 | 3.95 ± 0.2 | – | – |
| TAGKVLAHFYGVKLEGKVPMHKLF [ESRRA] | 2.41 ± 0.39 | 2.44 ± 0.79 | – | – |
| TAGQERFRALAPMYYRGSAAAIIV [RAB22A] | 2.26 ± 0.091 | 2.25 ± 0.26 | – | – |
| TALTSFCAKYTYPVCSALLDPVLQ [FANCE] | 2.31 ± 0.37 | 2.23 ± 0.35 | – | – |
| TARRLLSQVRALDRFQVPTTEVNA [NFE2L1] | 3.02 ± 0.07 | – | – | – |
| TCIDMDWKVLTWLRYTLWIPLYPL [HACD3] | 3.08 ± 0.28 | 3.29 ± 0.5 | – | – |
| TCLPLGVLMKGQHLHLETFKAVLD [PRAME] | 2.36 ± 0.25 | 2.32 ± 0.32 | – | – |
| TDLPECEQSSARQKASLLIQQALT [TCF25] | 3.47 ± 0.36 | 3.66 ± 0.36 | – | – |
| TEDVGVVCSDKRIPGFKFDNSLIN [LOXL2] | 3.76 ± 0.28 | 3.75 ± 0.3 | – | – |
| TEELIVQTKQVYDAVGMLGIEEVT [NLN] | 4.23 ± 0.17 | 4.1 ± 0.45 | – | – |
| TEEQTRQERQGPAKPEVLSIQWPG [NECAB1] | 5.07 ± 0.058 | 5.14 ± 0.15 | – | – |
| TEIEEELKSLDKEISEAFTSTGFD [BCL2L13] | 5.16 ± 0.27 | 5.26 ± 0.34 | – | – |
| TEPLTHWYQVRCLFQSPLFAKAGD [CARM1] | 2.11 ± 0.36 | 2.15 ± 0.61 | – | – |
| TEPPVALAPGPAPTRCLPGHKEEE [ESRRA] | 5.28 ± 0.12 | 5.36 ± 0.34 | – | – |
| TFASLIGPFGGFFASGFKRAFKIK [CDS1] | 2.66 ± 0.73 | 1.85 ± 0.26 | – | – |
| TGEDSAFQEPDSPLPPARSPTEPG [WEE1] | 5.62 ± 0.15 | 5.44 ± 0.34 | – | – |
| TGGLGGERERQPCGDGNTETHRAP [SOAT2] | 5.37 ± 0.15 | 5.31 ± 0.19 | – | – |
| TGKGPSTHTQIDQQPPRLLIVHIA [M1AP] | 2.54 ± 0.34 | 2.44 ± 0.6 | – | – |
| TIRLRPRQVLCEKCKSTLSPPEAS [PWWP2B] | 3.23 ± 0.3 | 3.75 ± 0.6 | – | – |
| TITLNCPRNSDMKNQGEENGFPDS [EDARADD] | 4.11 ± 0.51 | 4.23 ± 0.19 | – | – |
| TLALLLNFLACLASFCVETNNGAG [SCAMP3] | 3.06 ± 0.2 | 2.88 ± 0.89 | – | – |

| Sequence | protein stability index [1] | protein stability index [2] | protein stability index (treatment: DMSO, c terminus: native) | protein stability index (treatment: MLN4924 1 uM, 8 h, c terminus: native) |
| --- | --- | --- | --- | --- |
| TLLSVLKREAGNLTKATAPDQKSS [SSNA1] | 2.69 ± 0.13 | 2.83 ± 0.3 | – | – |
| TLNVIELNVQKTVDYTGQAKAQVR [STX11] | 2.93 ± 0.28 | 3.19 ± 0.31 | – | – |
| TLPEYRVSVPENLPVGTQLLTVTA [PCDHGA10] | 3.36 ± 0.29 | 3.24 ± 0.3 | – | – |
| TLSGTCLLIANKRQSYDISIVAQV [CARM1] | 2.38 ± 0.69 | 2.68 ± 1.5 | – | – |
| TLSNPQMSLEGTEKASWLGEQPQF [ELF3] | 4.26 ± 0.34 | 4.21 ± 0.37 | – | – |
| TMDGEGTLFQTESPQSGSILTEET [PBXIP1] | 5.44 ± 0.066 | 5.43 ± 0.17 | – | – |
| TMTSSQSMNFSMMSTNTVGLGLPM [CLINT1] | 3.02 ± 0.18 | 2.68 ± 0.083 | – | – |
| TNETNVNIPQMADTLFERATNSSW [SNAP91] | 3.77 ± 0.11 | 3.99 ± 0.2 | – | – |
| TNLKETYRCIREARYTMPSSLLAP [PLK2] | 2.34 ± 0.54 | 2.3 ± 0.08 | – | – |
| TPLASSTDHQTPPTSPVQGTTPQI [HDAC6] | 5.17 ± 0.16 | 5.03 ± 0.16 | – | – |
| TQEQARKEFQQVFIPECNDDGTYS [SMOC2] | 4.94 ± 0.27 | 4.84 ± 0.18 | – | – |
| TQSWSSQSSFNSLQRVPSYDSFDS [ETS1] | 4.06 ± 0.2 | 3.98 ± 0.22 | – | – |
| TRAILRERICSEEERAKAKHLARQ [CHCHD3] | 3.52 ± 0.33 | 3.76 ± 0.27 | – | – |
| TRGWVQTLARMSRRTRGPVERAAA [C6orf223] | 3.23 ± 0.22 | 3.57 ± 0.098 | – | – |
| TRKREDAEHNLVLFRKDVDDATLS [PRPH] | 4.77 ± 0.18 | 4.73 ± 0.097 | – | – |
| TRLEQEIATYRSLLEGQDAKMAGI [KRT15] | 3.7 ± 0.22 | 3.72 ± 0.18 | – | – |
| TRLLLQFTQPQQTSFALERNLRTQ [C8orf76] | 2.33 ± 0.46 | 2.52 ± 0.27 | – | – |
| TRQNGIQTNKPALRAVRQRSEFTL [STX5] | 3.19 ± 0.32 | 3.37 ± 0.39 | – | – |
| TSLGLTYDGMLSDVQSMPKTGILI [MAGEA10] | 1.93 ± 0.39 | 2.13 ± 0.41 | – | – |
| TSRGKLGGQDSFESIESYDSCDRL [ETS1] | 4.62 ± 0.16 | 4.68 ± 0.13 | – | – |
